Experimental findings from US20150017651A1 (University of Texas, published 2015) are described below.

In the test the target is mTOR (human, UniProt P42345 1-2549). Description: IP-Western, BE3 or SKGT4 cells.

B1: Gli2 (other)
chain: METSASATASEKQEAKSGILEAAGFPDPGKKASPLVVAAAAAAAVAAQGVPQHLLPPFHAPLPIDMRHQEGRYHYEPHSVHGVHGPPALSGSPVISDISLIRLSPHPAGPGESPFNAPHPYVNPHMEHYLRSVHSSPTLSMISAARGLSPADVAQEHLKERGLFGLPAPGTTPSDYYHQMTLVAGHPAPYGDLLMQSGGAASAPHLHDYLNPVDVSRFSSPRVTPRLSRKRALSISPLSDASLDLQRMIRTSPNSLVAYINNSRSSSAASGSYGHLSAGALSPAFTFPHPINPVAYQQILSQQRGLGSAFGHTPPLIQPSPTFLAQQPMALTSINATPTQLSSSSNCLSDTNQNKQSSESAVSSTVNPVAIHKRSKVKTEPEGLRPASPLALTQGQVSGHGSCGCALPLSQEQLADLKEDLDRDDCKQEAEVVIYETNCHWEDCTKEYDTQEQLVHHINNEHIHGEKKEFVCRWQACTREQKPFKAQYMLVVHMRRHTGEKPHKCTFEGCSKAYSRLENLKTHLRSHTGEKPYVCEHEGCNKAFSNASDRAKHQNRTHSNEKPYICKIPGCTKRYTDPSSLRKHVKTVHGPDAHVTKKQRNDVHLRTPLLKENGDSEAGTEPGGPESTEASSTSQAVEDCLHVRAIKTESSGLCQSSPGAQSSCSSEPSPLGSAPNNDSGVEMPGTGPGSLGDLTALDDTPPGADTSALAAPSAGGLQLRKHMTTMHRFEQLKKEKLKSLKDSCSWAGPTPHTRNTKLPPLPGSGSILENFSGSGGGGPAGLLPNPRLSELSASEVTMLSQLQERRDSSTSTVSSAYTVSRRSSGISPYFSSRRSSEASPLGAGRPHNASSADSYDPISTDASRRSSEASQCSGGSGLLNLTPAQQYSLRAKYAAATGGPPPTPLPGLERMSLRTRLALLDAPERTLPAGCPRPLGPRRGSDGPTYGHGHAGAAPAFPHEAPGGGARRASDPVRRPDALSLPRVQRFHSTHNVNPGPLPPCADRRGLRLQSHPSTDGGLARGAYSPRPPSISENVAMEAVAAGVDGAGPEADLGLPEDDLVLPDDVVQYIKAHASGALDEGTGQVYPTESTGFSDNPRLPSPGLHGQRRMVAADSNVGPSAPMLGGCQLGFGAPSSLNKNNMPVQWNEVSSGTVDALASQVKPPPFPQGNLAVVQQKPAFGQYPGYSPQGLQASPGGLDSTQPHLQPRSGAPSQGIPRVNYMQQLRQPVAGSQCPGMTTTMSPHACYGQVHPQLSPSTISGALNQFPQSCSNMPAKPGHLGHPQQTEVAPDPTTMGNRHRELGVPDSALAGVPPPHPVQSYPQQSHHLAASMSQEGYHQVPSLLPARQPGFMEPQTGPMGVATAGFGLVQPRPPLEPSPTGRHRGVRAVQQQLAYARATGHAMAAMPSSQETAEAVPKGAMGNMGSVPPQPPPQDAGGAPDHSMLYYYGQIHMYEQDGGLENLGSCQVMRSQPPQPQACQDSIQPQPLPSPGVNQVSSTVDSQLLEAPQIDFDAIMDDGDHSSLFSGALSPSLLHSLSQNSSRLTTPRNSLTLPSIPAGISNMAVGDMSSMLTSLAEESKFLNMMT
With B1, the binding result was “no binding”.

B2: Gli3 (other)
chain: MEAQSHSSTTTEKKKVENSIVKCSTRTDVSEKAVASSTTSNEDESPGQTYHRERRNAITMQPQNVQGLSKVSEEPSTSSDERASLIKKEIHGSLPHVAEPSVPYRGTVFAMDPRNGYMEPHYHPPHLFPAFHPPVPIDARHHEGRYHYDPSPIPPLHMTSALSSSPTYPDLPFIRISPHRNPTAASESPFSPPHPYINPYMDYIRSLHSSPSLSMISATRGLSPTDAPHAGVSPAEYYHQMALLTGQRSPYADIIPSAATAGTGAIHMEYLHAMDSTRFSSPRLSARPSRKRTLSISPLSDHSFDLQTMIRTSPNSLVTILNNSRSSSSASGSYGHLSASAISPALSFTYSSAPVSLHMHQQILSRQQSLGSAFGHSPPLIHPAPTFPTQRPIPGIPTVLNPVQVSSGPSESSQNKPTSESAVSSTGDPMHNKRSKIKPDEDLPSPGARGQQEQPEGTTLVKEEGDKDESKQEPEVIYETNCHWEGCAREFDTQEQLVHHINNDHIHGEKKEFVCRWLDCSREQKPFKAQYMLVVHMRRHTGEKPHKCTFEGCTKAYSRLENLKTHLRSHTGEKPYVCEHEGCNKAFSNASDRAKHQNRTHSNEKPYVCKIPGCTKRYTDPSSLRKHVKTVHGPEAHVTKKQRGDIHPRPPPPRDSGSHSQSRSPGRPTQGALGEQQDLSNTTSKREECLQVKTVKAEKPMTSQPSPGGQSSCSSQQSPISNYSNSGLELPLTDGGSIGDLSAIDETPIMDSTISTATTALALQARRNPAGTKWMEHVKLERLKQVNGMFPRLNPILPPKAPAVSPLIGNGTQSNNTCSLGGPMTLLPGRSDLSGVDVTMLNMLNRRDSSASTISSAYLSSRRSSGISPCFSSRRSSEASQAEGRPQNVSVADSYDPISTDASRRSSEASQSDGLPSLLSLTPAQQYRLKAKYAAATGGPPPTPLPNMERMSLKTRLALLGDALEPGVALPPVHAPRRCSDGGAHGYGRRHLQPHDAPGHGVRRASDPVRTGSEGLALPRVPRFSSLSSCNPPAMATSAEKRSLVLQNYTRPEGGQSRNFHSSPCPPSITENVTLESLTMDADANLNDEDFLPDDVVQYLNSQNQAGYEQHFPSALPDDSKVPHGPGDFDAPGLPDSHAGQQFHALEQPCPEGSKTDLPIQWNEVSSGSADLSSSKLKCGPRPAVPQTRAFGFCNGMVVHPQNPLRSGPAGGYQTLGENSNPYGGPEHLMLHNSPGSGTSGNAFHEQPCKAPQYGNCLNRQPVAPGALDGACGAGIQASKLKSTPMQGSGGQLNFGLPVAPNESAGSMVNGMQNQDPVGQGYLAHQLLGDSMQHPGAGRPGQQMLGQISATSHINIYQGPESCLPGAHGMGSQPSSLAVVRGYQPCASFGGSRRQAMPRDSLALQSGQLSDTSQTCRVNGIKMEMKGQPHPLCSNLQNYSGQFYDQTVGFSQQDTKAGSFSISDASCLLQGTSAKNSELLSPGANQVTSTVDSLDSHDLEGVQIDFDAIIDDGDHSSLMSGALSPSIIQNLSHSSSRLTTPRASLPFPALSMSTTNMAIGDMSSLLTSLAEESKFLAVMQ
Regarding B2, the binding result was “no binding”.
